{"source": "patent US20190300580A1", "key": {"[1]": {"target": "wild type dengue serotype 2 exodomain, HEK293-produced (The Native Antigen Company DENV2-ENV) (dengue virus serotype 2)", "test": "ELISA, His-tagged exodomain captured by anti-His-tag antibody, 4G2 titrated (FIG. 5a)"}, "[2]": {"target": "wild type dengue serotype 4 exodomain (The Native Antigen Company DENV4-ENV) (dengue virus serotype 4)", "test": "ELISA, His-tagged exodomain captured by anti-His-tag antibody, 4G2 titrated (FIG. 5a)"}, "[3]": {"target": "Dengue serotype 3 VLP (The Native Antigen Company), wild type (dengue virus serotype 3)", "test": "competition ELISA on VLP, unlabelled 4G2 at 10 micrograms per ml against biotinylated 4G2"}}}
{"substance": "fusion-loop antibody 4G2 (The Native Antigen Company AbFLAVENV-4G2)", "values": [{"measurement": "low antibody concentration still giving a signal above background", "setting": "[1]", "result": 250, "unit": "pg/mL"}, {"measurement": "low antibody concentration still giving a signal above background", "setting": "[2]", "result": 250, "unit": "pg/mL"}, {"measurement": "% inhibition", "setting": "[3]", "result": 80, "unit": "%"}]}
